Reference: the supplement of paper PMC12042874
± gives the uncertainty stated by the source.

assay: amyloid nucleation score (Sup35N fusion, yeast selection) (log enrichment); library NNK3; higher = more nucleation; inactive = no reads after selection
Outline: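 Psi-negative yeast expressed Sup35N fused to peptides of 20 random codons. They were induced 24 hours with 100 μM copper sulfate, grown 7 days at 30°C without adenine and uracil, and their plasmid inserts from input and output were Illumina-sequenced. The nucleation score is the DiMSum log enrichment of output over input reads, centred on the mode score of non-aggregating sequences. Sequences with under 100 input reads were excluded.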

Substance | amyloid nucleation score
MQWNWEGSLYMKIMSGMCHP | 1.02 ± 0.15
GFSLKGLNSNDTRSLSHKLG | inactive
SYNDSLCLDVQTIYPLHSPS | inactive
TERESMCFLYWVSRRHYTGN | -0.541 ± 0.55
HKLYEWACSRSTALNYIGQI | inactive
FFWECYRQINCSINW | inactive
DDRDSNSVTLDNSWSYSITV | inactive
RLKMGLSN | -0.846 ± 0.8
FIRARLLRHHTLARNAYVLR | inactive
WLNVLNSYSDRSYLKETRLR | inactive
RARGDTIK | inactive
KAAEDMRGFHCGARKSIRVD | inactive
IMKKESVAHHVNIGIHASLT | -0.101 ± 1.1
FELTVLSSMVAIFL | 1.61 ± 0.089
GYRDLRGWNVNRKDSLVS | inactive
HHKITCLNRW | inactive
GIELAVFYCHYIRVGSDVY | inactive
CRQVRFALLNFLAAG | inactive
LLHCQCSC | inactive
VICLLPLT | 0.099 ± 0.3
CLPPKS | inactive
FMFLVFDC | inactive

Substance | amyloid nucleation score
CSTFNFRGNTIHLNLCWEVI | 0.424 ± 0.71
SEQFSPCLVGQLRMDYSWI | inactive
CRKTESAMRWK | inactive
AGSPCWSNHHYMTKRDCRFS | inactive
RRLCRYCDVILRNFMHKIQW | inactive
WYACRIQ | 0.517 ± 0.23
IFGCFSCSVSMFIDNAVMSL | 2.55 ± 0.066
SSQDVTALLSRLN | inactive
RSYLSEHSNYGAKSSYYGIF | inactive
VWKIHYCFDVFIMV | inactive
QNRFDLPGMSQRSTHDRAPS | -0.03 ± 0.73
SKVRTVGRLEVSVRIVKTGL | 0.085 ± 0.32
GMAETRWGLRKIWKVAGARI | -0.85 ± 1.9
FWRYAYNCYCGYSCDQIGDS | inactive
SVCSCNAKYARIGMMLFLLG | 1.16 ± 0.075
ARASVFAMGDTPLWSG | inactive
SMTWSRIAFEIMWNSVCRLI | inactive
LQDIPLFFCCVLFCVATMAL | inactive
SRLMWSGNLWRILVWCFTSN | inactive
GTSMSRPDIVTDKVMPFLRR | inactive
FSHHIDTFV | inactive
WDWWN | inactive

Substance | amyloid nucleation score
LEYAVVKSHQREESSSTCLG | inactive
FSFTIDAYRHRTTSVLMRMS | inactive
SIIDKCATTLTDVSGNQLGV | inactive
SVFRDSRPLLYDVNMVNGGG | inactive
IIRVLNWYHYIEAKTLNSLR | inactive
SLATSYVNFILCRLLKFDHT | inactive
DKGLGVLRHLNRWIVCTGHD | inactive
PMHGGTSSQSYNNLLRRSVK | inactive
IYVGHK | inactive
LRTTDSGSGIYLTNSVHGFV | inactive
IDKVLGPKVPAHRTSGGLSK | inactive
HWAVRH | 0.212 ± 0.42
SYKSLNCALFLQ | 0.574 ± 0.24
RANLPRLFQNDHNSWLDCVA | inactive
FKWQEW | -0.943 ± 1.3
LIISLGTVVIDVQSKKSLLL | 2.29 ± 0.079
FCQSFWLLQLARMPCYVESQ | inactive
RGIHEIGVMLKSVSQLE | inactive
FWVRYGPNSQGVGPWTMHRW | 0.189 ± 0.74
IHFLNWSARM | inactive
TLIFRLYLRRNCNAVFCFVV | 0.084 ± 0.56
LVVYYYLCACNYGARRFSWC | 1.15 ± 0.13
